Ends that are not written are not given here.
B1: SEQ ID NO 1 (peptide)
peptide: YNLYGWT
notes: Clone of the PhD C7C library (NEB): the 7-mer stands between two cysteines on M13 phage; tested as whole phage; also called YNLYGWT
B2: 2BBIck81 (designed binder)
chain: DDESSKPCCDQCACTKSNPPQCRCSDMRLNSCHSACKSCACYNLYGWTCFCVDITDFCYEPCKPSEDDKEN
notes: also called free 2BBIck81; 2BBlck81
B3: BLA (enzyme)
chain: TPVSEKQLAEVVANTITPLMKAQSVPGMAVAVIYQGKPHYYTFGKADIAANKPVTPQTLFELGSISKTFTGVLGGDAIARGEISLDDAVTRYWPQLTGKQWQGIRMLDLATYTAGGLPLQVPDEVTDNASLLRFYQNWQPQWKPGTTRLYANASIGLFGALAVKPSGMPYEQAMTTRVLKPLKLDHTWINVPKAEEAHYAWGYRDGKAVRVSPGMLDAQAYGVKTNVQDMANWVMANMAPENVADASLKQGIALAQSRYWRIGSMYQGLGWEMLNWPVEANTVVEGSDSKVALAPLPVAEVNPPAPPVKASWVHKTGSTGGFGSYVAFIPEKQIGIVMLANTSYPNPARVEAAYHILEALQHHHHHH
notes: also called pCB04; pCB04 (WT)
B4: biotinylated peptide CK37281 (peptide)
peptide: ACYNLYGWTC
modifications: cysteine pairing not given here; also: biotinylated (site not given here)
notes: Synthetic peptide (FMOC chemistry, SynPep)

Legend:
BSA [1] = biological target: T1, BSA (UniProt P02769 25-607); assay: phage ELISA, equivalent amounts of phage, anti-M13-HRP, ABTS, A405 after 30 min (n=3)
T1 sequence (P02769 25-607 limits assumed): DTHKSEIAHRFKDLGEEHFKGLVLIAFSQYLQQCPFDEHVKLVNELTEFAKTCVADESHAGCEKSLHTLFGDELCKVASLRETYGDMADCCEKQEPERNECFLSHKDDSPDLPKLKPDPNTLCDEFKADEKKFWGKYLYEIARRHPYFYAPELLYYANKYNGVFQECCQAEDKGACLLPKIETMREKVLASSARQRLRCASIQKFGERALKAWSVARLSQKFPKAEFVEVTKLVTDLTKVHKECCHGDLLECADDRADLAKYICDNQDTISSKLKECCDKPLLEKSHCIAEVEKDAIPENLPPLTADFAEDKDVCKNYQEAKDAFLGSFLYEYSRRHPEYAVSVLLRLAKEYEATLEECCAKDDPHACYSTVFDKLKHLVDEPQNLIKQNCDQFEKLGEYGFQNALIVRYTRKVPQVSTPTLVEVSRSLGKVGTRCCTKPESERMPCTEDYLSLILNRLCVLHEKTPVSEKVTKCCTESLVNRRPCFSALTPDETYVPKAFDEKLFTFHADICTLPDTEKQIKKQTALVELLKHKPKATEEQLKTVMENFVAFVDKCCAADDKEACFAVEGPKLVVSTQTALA
Experimental: (§1) Equivalent amounts of phage were evaluated to determine their relative binding affinity to hVEGF₁₆₅. […] Target-bound phage were detected with anti-M13-HRP.

[2] = biological target: T2, VegF (PeproTech), labeled with biotin (UniProt P15692-4 27-191, limits assumed, biotin label (site not stated)); assay: ECL competition assay (BioVeris): biotinylated VegF on streptavidin beads, competitor ECL labeled Anti-VegF antibody
T2 construct: Captured on streptavidin coated beads in the BioVeris ECL assay; also called biotinylated VegF
T2 sequence (P15692 other isoform, or with tags, fused parts or gaps limits assumed): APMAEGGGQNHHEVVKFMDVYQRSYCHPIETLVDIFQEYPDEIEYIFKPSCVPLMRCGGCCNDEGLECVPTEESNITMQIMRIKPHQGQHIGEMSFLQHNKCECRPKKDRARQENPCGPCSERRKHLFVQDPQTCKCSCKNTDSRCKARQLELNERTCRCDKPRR

human VEGF165 [3] = biological target: T3, human VEGF165 (human, UniProt P15692-4 27-191); assay: bound beta-lactamase activity (nitrocefin, mOD/min) on hVEGF165 coated wells after washing
T3 construct: Bought protein; panning target, amine-coupled to CM5 chips for BIAcore, coated on plates; also called hVEGF165; hVEGF
T3 sequence (P15692 other isoform, or with tags, fused parts or gaps limits assumed): as above

human VEGF165 [4] = biological target: T3, human VEGF165; assay: SPR (BIAcore 3000), VEGF165 coupled to CM5, peptide injected, TNF-alpha reference lane; two state reaction model with conformation change; overall KD of the two state fit
Experimental: (§2) Affinities of the peptides for VEGF were measured using a BIAcore™-3000 surface plasmon resonance system (Biacore). A CM5 sensor chip was conditioned with 50 mM NaOH, 0.1% HCl, 0.1% SDS, and 0.08% H₃PO₄, and activated for covalent coupling of VEGF using N-ethyl-N′-(3-dimethylaminopropyl)-carbodiimide hydrochloride (EDC) and N-hydroxysuccinimide (NHS) according to the supplier's instructions (Biacore). Human VEGF₁₆₅ (Biosource) was diluted to 5 μg/ml in 20 mM sodium acetate, pH 4.8 and injected at a flow rate of 2 μl/min to achieve approximately 1000 to 6000 response units (RU) of coupled protein. TNF-alpha (human TNF-alpha, Biosource, Int., Camarillo, Calif.) was similarly coupled to the CM5 sensor chip to approximately 850 to 3500 RU in the reference lane. A solution of 1 M ethanolamine was injected as a blocking agent. In some experiments, an additional solution of EDC and NHS were injected to improve baseline stability and a solution of 1 M ethanolamine injected as a blocking agent. The reference lane was activated with EDC and NHS and blocked with ethanolamine.

human VEGF165 [5] = biological target: T3, human VEGF165; assay: SPR (BIAcore 3000), VEGF165 coupled to CM5, peptide injected, TNF-alpha reference lane; two state reaction model with conformation change; first step of the two state fit (ka1)
Experimental: as §2

human VEGF165 [6] = biological target: T3, human VEGF165; assay: SPR (BIAcore 3000), VEGF165 coupled to CM5, peptide injected, TNF-alpha reference lane; two state reaction model with conformation change; first step of the two state fit (kd1)
Experimental: as §2

BSA [7] = biological target: T1, BSA; assay: phage ELISA, anti-M13-HRP, ABTS, A405
Experimental: as §1

Row | Binder | binding result (BSA [1]) | also measured
1 | B1 | no binding | –
2 | SLWPAFW (tested as whole phage) [SEQ ID NO 4] | no binding | –
3 | B2 | – | IC50 (read off the curve) [2]: ~3000 nM
4 | NLWPHFW (tested as whole phage) [SEQ ID NO 3] | no binding | –
5 | B3 | – | binding result (human VEGF165 [3]): no binding (tested: about 40 uM)
6 | B4 | – | Kd (human VEGF165 [4]): 1920 nM; kon (human VEGF165 [5]): 2840 M⁻¹ s⁻¹; koff (human VEGF165 [6]): 0.0122 s⁻¹
7 | TLWPSYW (tested as whole phage) [SEQ ID NO 7] | no binding | –
8 | APWNSHI (tested as whole phage) [SEQ ID NO 5] | no binding | –
9 | APWNLHI (tested as whole phage) [SEQ ID NO 6] | – | binding result (BSA [7]): no binding
10 | TLWPTFW (tested as whole phage) [SEQ ID NO 2] | no binding | –
11 | HLAPSAV (tested as whole phage) [SEQ ID NO 13] | no binding | –

Reference: patent US20120014885A1 (DANISCO US, published 2012)
